The target in this test is CFF–Myc. The experiment in a line: co-IP; Fig. 5D: HEK293T lysates co-expressing HA–TNPO1, CFF–Myc and GFP–Rab8-wt, GFP–Rab8-QL, GFP–Rab8-TN or GFP; anti-Myc immunoprecipitation; blotted for TNPO1 and GFP chimeras.

Sequence of HA–TNPO1 (Q92973 whole entry): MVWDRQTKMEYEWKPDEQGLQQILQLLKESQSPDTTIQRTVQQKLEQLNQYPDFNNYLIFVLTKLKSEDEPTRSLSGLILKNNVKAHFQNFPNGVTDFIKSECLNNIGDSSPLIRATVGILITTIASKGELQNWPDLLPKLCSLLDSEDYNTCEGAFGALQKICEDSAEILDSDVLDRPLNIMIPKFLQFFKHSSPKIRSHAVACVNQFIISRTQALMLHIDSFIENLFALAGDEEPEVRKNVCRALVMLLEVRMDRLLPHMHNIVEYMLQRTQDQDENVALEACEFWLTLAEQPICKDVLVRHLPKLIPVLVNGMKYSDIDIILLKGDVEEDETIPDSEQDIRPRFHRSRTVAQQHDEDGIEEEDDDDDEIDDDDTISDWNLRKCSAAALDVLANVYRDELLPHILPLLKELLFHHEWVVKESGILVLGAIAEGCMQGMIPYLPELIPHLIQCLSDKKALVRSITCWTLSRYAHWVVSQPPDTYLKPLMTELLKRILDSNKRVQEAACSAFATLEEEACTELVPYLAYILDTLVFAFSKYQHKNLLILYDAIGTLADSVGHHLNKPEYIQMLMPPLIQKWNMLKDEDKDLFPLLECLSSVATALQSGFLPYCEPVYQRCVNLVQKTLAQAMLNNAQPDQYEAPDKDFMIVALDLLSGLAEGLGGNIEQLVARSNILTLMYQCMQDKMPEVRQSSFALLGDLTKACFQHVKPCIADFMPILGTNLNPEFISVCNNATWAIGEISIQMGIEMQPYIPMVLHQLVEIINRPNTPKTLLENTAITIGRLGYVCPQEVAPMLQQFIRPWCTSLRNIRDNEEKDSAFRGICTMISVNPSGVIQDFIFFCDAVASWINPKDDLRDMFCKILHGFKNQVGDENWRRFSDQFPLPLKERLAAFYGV

The substance “HA–TNPO1 (from UniProt Q92973 1-898) (natural protein)” yielded a fold more TNPO1 co-immunoprecipitated with Rab8-TN co-expressed than with Rab8-QL or Rab8-wt of 3 fold.
